The source of these data is the supplement of paper PMC9112550, “Optimization of the antimicrobial peptide Bac7 by deep mutational scanning” (BMC Biology, 2022).
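Further: peptides expressed intracellularly from a pBAD plasmid library in pooled LB shake-flask culture, induced with 0.3% L-arabinose, DNA abundance read by NGS, three biological replicates, DESeq2 with apeglm shrinkage.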

For the series, the system named is Escherichia coli TOP10. Description: shrunken log2 fold change of peptide-encoding DNA abundance (4.5 h post-induction vs induction); higher = less antimicrobial activity (less host growth inhibition). The note with it: time post-induction: 4.5 h; library: site-saturation at positions 5, 18, 19, 20.
Consider RRIRQRPPRLPRPRPRPTKFPRP, for which the “shrunken log2 fold change” value is -0.203.

As to RRIRKRPPRLPRPRPRPQVHPRP, the “shrunken log2 fold change” value is -0.161.

Turning to RRIRPRPPRLPRPRPRPPSLPRP, the “shrunken log2 fold change” value stood at 0.381.

With RRIRCRPPRLPRPRPRPMGFPRP, the “shrunken log2 fold change” value was -0.103.

In the case of RRIRNRPPRLPRPRPRPQFKPRP, the “shrunken log2 fold change” value is -0.3.

Regarding RRIRIRPPRLPRPRPRPNMVPRP, the “shrunken log2 fold change” value is -0.383.

RRIRHRPPRLPRPRPRPDYVPRP: the “shrunken log2 fold change” value is -0.165.

As to RRIRWRPPRLPRPRPRPVAYPRP, the “shrunken log2 fold change” value was -0.0891.

With RRIRQRPPRLPRPRPRPLQEPRP, the “shrunken log2 fold change” value was -0.129.

As for RRIRIRPPRLPRPRPRPITCPRP, the “shrunken log2 fold change” value was -0.378.

Take RRIRERPPRLPRPRPRPMDMPRP: the “shrunken log2 fold change” value is -0.189.

For RRIRYRPPRLPRPRPRPQAIPRP, the “shrunken log2 fold change” value was -0.066.

For the sequence RRIRVRPPRLPRPRPRPQDMPRP, the “shrunken log2 fold change” value is -0.736.

For the sequence RRIRWRPPRLPRPRPRPLGAPRP, the “shrunken log2 fold change” value was found to be 0.483.

As for RRIRSRPPRLPRPRPRPRWYPRP, the “shrunken log2 fold change” value is -0.402.

For the sequence RRIRIRPPRLPRPRPRPNYAPRP, the “shrunken log2 fold change” value is -0.381.

As to RRIRFRPPRLPRPRPRPAVFPRP, the “shrunken log2 fold change” value amounted to 0.259.

As to RRIRMRPPRLPRPRPRPWFPPRP, the “shrunken log2 fold change” value was -0.0494.

Turning to RRIRERPPRLPRPRPRPSDFPRP, the “shrunken log2 fold change” value was -0.149.

Regarding RRIRDRPPRLPRPRPRPAKAPRP, the “shrunken log2 fold change” value amounted to 0.0972.

RRIRTRPPRLPRPRPRPWDWPRP: the “shrunken log2 fold change” value was 0.00763.

Turning to RRIRPRPPRLPRPRPRPAGTPRP, the “shrunken log2 fold change” value was -0.07.

As for RRIRYRPPRLPRPRPRPIQTPRP, the “shrunken log2 fold change” value is -0.499.

On to RRIRKRPPRLPRPRPRPKEKPRP, for which the “shrunken log2 fold change” value was determined as 0.0508.

With RRIRMRPPRLPRPRPRPHGDPRP, the “shrunken log2 fold change” value is -0.0284.

Regarding RRIRGRPPRLPRPRPRPAWCPRP, the “shrunken log2 fold change” value was 0.822.

Consider RRIRWRPPRLPRPRPRPAEMPRP, for which the “shrunken log2 fold change” value was determined as 0.213.

On to RRIRDRPPRLPRPRPRPMKTPRP, for which the “shrunken log2 fold change” value is -0.00973.

Take RRIRWRPPRLPRPRPRPENEPRP: the “shrunken log2 fold change” value was determined as 0.194.

Consider RRIRWRPPRLPRPRPRPKWCPRP, for which the “shrunken log2 fold change” value was -0.0668.

With RRIRRRPPRLPRPRPRPISTPRP, the “shrunken log2 fold change” value is -0.0842.

For RRIRVRPPRLPRPRPRPWHKPRP, the “shrunken log2 fold change” value was -0.127.

For RRIRNRPPRLPRPRPRPYCWPRP, the “shrunken log2 fold change” value is -0.425.

Turning to RRIRGRPPRLPRPRPRPKQSPRP, the “shrunken log2 fold change” value is 0.887.

With RRIRFRPPRLPRPRPRPVIHPRP, the “shrunken log2 fold change” value is -0.182.

Turning to RRIRVRPPRLPRPRPRPTNCPRP, the “shrunken log2 fold change” value is -0.075.

Consider RRIRWRPPRLPRPRPRPLVLPRP, for which the “shrunken log2 fold change” value is 0.0697.

As to RRIRCRPPRLPRPRPRPLTDPRP, the “shrunken log2 fold change” value is -0.285.

For RRIRKRPPRLPRPRPRPRKCPRP, the “shrunken log2 fold change” value was determined as 0.0121.

Turning to RRIRARPPRLPRPRPRPERTPRP, the “shrunken log2 fold change” value turned out to be 0.143.

For the sequence RRIRCRPPRLPRPRPRPKQDPRP, the “shrunken log2 fold change” value was determined as 0.0895.

Take RRIRDRPPRLPRPRPRPGKPPRP: the “shrunken log2 fold change” value was found to be 0.0599.

In the case of RRIRNRPPRLPRPRPRPQDTPRP, the “shrunken log2 fold change” value was -0.0984.

In the case of RRIRFRPPRLPRPRPRPAGEPRP, the “shrunken log2 fold change” value is 0.191.

With RRIRKRPPRLPRPRPRPTQAPRP, the “shrunken log2 fold change” value was -0.00908.

For RRIRIRPPRLPRPRPRPYFIPRP, the “shrunken log2 fold change” value was -1.14.

For the sequence RRIRDRPPRLPRPRPRPNPIPRP, the “shrunken log2 fold change” value was -0.132.

With RRIRSRPPRLPRPRPRPQEFPRP, the “shrunken log2 fold change” value was -0.00884.

For the sequence RRIRSRPPRLPRPRPRPTYHPRP, the “shrunken log2 fold change” value was -0.492.

With RRIRQRPPRLPRPRPRPQSFPRP, the “shrunken log2 fold change” value is -0.0179.

Consider RRIRHRPPRLPRPRPRPLSMPRP, for which the “shrunken log2 fold change” value was -0.396.

Take RRIRNRPPRLPRPRPRPCCVPRP: the “shrunken log2 fold change” value is -0.667.

Turning to RRIRDRPPRLPRPRPRPMMWPRP, the “shrunken log2 fold change” value was 0.156.

As for RRIRTRPPRLPRPRPRPVYWPRP, the “shrunken log2 fold change” value was -0.103.

Turning to RRIRTRPPRLPRPRPRPHWRPRP, the “shrunken log2 fold change” value was found to be 0.027.

For the sequence RRIRNRPPRLPRPRPRPISTPRP, the “shrunken log2 fold change” value was -0.507.

Consider RRIRFRPPRLPRPRPRPFCGPRP, for which the “shrunken log2 fold change” value is -0.0609.

RRIRPRPPRLPRPRPRPGGYPRP: the “shrunken log2 fold change” value amounted to 0.25.

With RRIRNRPPRLPRPRPRPQNEPRP, the “shrunken log2 fold change” value was -0.331.

Consider RRIRYRPPRLPRPRPRPPGKPRP, for which the “shrunken log2 fold change” value was 0.157.

On to RRIRMRPPRLPRPRPRPMIEPRP, for which the “shrunken log2 fold change” value is 0.17.

RRIRCRPPRLPRPRPRPYWLPRP: the “shrunken log2 fold change” value was -0.669.

As to RRIRHRPPRLPRPRPRPTLIPRP, the “shrunken log2 fold change” value was determined as 0.0888.

On to RRIRPRPPRLPRPRPRPKFHPRP, for which the “shrunken log2 fold change” value was -0.143.

Regarding RRIRARPPRLPRPRPRPNNVPRP, the “shrunken log2 fold change” value was -0.0632.

RRIRMRPPRLPRPRPRPSGSPRP: the “shrunken log2 fold change” value stood at 0.133.

Take RRIRARPPRLPRPRPRPMLPPRP: the “shrunken log2 fold change” value is 0.425.

RRIRMRPPRLPRPRPRPNPYPRP: the “shrunken log2 fold change” value was -0.0714.

For the sequence RRIRVRPPRLPRPRPRPRQCPRP, the “shrunken log2 fold change” value was found to be 0.33.

Regarding RRIRSRPPRLPRPRPRPKVQPRP, the “shrunken log2 fold change” value is 0.293.

As to RRIRDRPPRLPRPRPRPARSPRP, the “shrunken log2 fold change” value is 0.0403.

RRIRARPPRLPRPRPRPFQNPRP: the “shrunken log2 fold change” value was -0.124.

For the sequence RRIRGRPPRLPRPRPRPGMPPRP, the “shrunken log2 fold change” value is 0.406.

As for RRIRMRPPRLPRPRPRPLHCPRP, the “shrunken log2 fold change” value was 0.254.

On to RRIRMRPPRLPRPRPRPLFMPRP, for which the “shrunken log2 fold change” value is 0.0387.

With RRIRCRPPRLPRPRPRPWAGPRP, the “shrunken log2 fold change” value stood at 0.124.

For RRIRNRPPRLPRPRPRPTDHPRP, the “shrunken log2 fold change” value was -0.383.

On to RRIRARPPRLPRPRPRPRDDPRP, for which the “shrunken log2 fold change” value is 0.647.

In the case of RRIRYRPPRLPRPRPRPESAPRP, the “shrunken log2 fold change” value is -0.146.

Regarding RRIRRRPPRLPRPRPRPWVQPRP, the “shrunken log2 fold change” value was 0.25.

Regarding RRIRERPPRLPRPRPRPITGPRP, the “shrunken log2 fold change” value is -0.0908.

RRIRQRPPRLPRPRPRPIATPRP: the “shrunken log2 fold change” value is -0.0607.

For the sequence RRIRVRPPRLPRPRPRPWSKPRP, the “shrunken log2 fold change” value was -0.2.

On to RRIRKRPPRLPRPRPRPWHIPRP, for which the “shrunken log2 fold change” value was -0.0551.

On to RRIRNRPPRLPRPRPRPLRPPRP, for which the “shrunken log2 fold change” value came to 0.998.

For RRIRDRPPRLPRPRPRPTDWPRP, the “shrunken log2 fold change” value is 0.516.

RRIRARPPRLPRPRPRPMKLPRP: the “shrunken log2 fold change” value was found to be 0.0594.

With RRIRPRPPRLPRPRPRPVRTPRP, the “shrunken log2 fold change” value came out at 0.385.

On to RRIRVRPPRLPRPRPRPIHAPRP, for which the “shrunken log2 fold change” value is 0.098.

In the case of RRIRERPPRLPRPRPRPRGHPRP, the “shrunken log2 fold change” value is 0.0666.

Consider RRIRRRPPRLPRPRPRPDHHPRP, for which the “shrunken log2 fold change” value was -0.254.

Consider RRIRGRPPRLPRPRPRPDVRPRP, for which the “shrunken log2 fold change” value turned out to be 0.0237.

Turning to RRIRLRPPRLPRPRPRPKHPPRP, the “shrunken log2 fold change” value is -0.09.

Take RRIRWRPPRLPRPRPRPWSEPRP: the “shrunken log2 fold change” value is -0.206.

For the sequence RRIRTRPPRLPRPRPRPSTWPRP, the “shrunken log2 fold change” value is -0.176.

RRIRIRPPRLPRPRPRPKNRPRP: the “shrunken log2 fold change” value is -0.26.

As for RRIRNRPPRLPRPRPRPGLCPRP, the “shrunken log2 fold change” value amounted to 0.685.

As to RRIRGRPPRLPRPRPRPRSDPRP, the “shrunken log2 fold change” value was found to be 0.555.

On to RRIRFRPPRLPRPRPRPHCFPRP, for which the “shrunken log2 fold change” value was -0.0267.

RRIRNRPPRLPRPRPRPPSRPRP: the “shrunken log2 fold change” value was found to be 0.228.

On to RRIRFRPPRLPRPRPRPVNQPRP, for which the “shrunken log2 fold change” value was -0.188.

As to RRIRMRPPRLPRPRPRPFTTPRP, the “shrunken log2 fold change” value was -0.0216.

For RRIRFRPPRLPRPRPRPRMYPRP, the “shrunken log2 fold change” value was -0.151.

Consider RRIRLRPPRLPRPRPRPWINPRP, for which the “shrunken log2 fold change” value is -0.43.

For RRIRVRPPRLPRPRPRPPWDPRP, the “shrunken log2 fold change” value was 0.445.

On to RRIRLRPPRLPRPRPRPILRPRP, for which the “shrunken log2 fold change” value is -0.156.

As for RRIRDRPPRLPRPRPRPFVEPRP, the “shrunken log2 fold change” value is -0.0362.

On to RRIRARPPRLPRPRPRPAPNPRP, for which the “shrunken log2 fold change” value is 0.737.

Turning to RRIRCRPPRLPRPRPRPRTQPRP, the “shrunken log2 fold change” value was determined as 0.323.

On to RRIRARPPRLPRPRPRPASSPRP, for which the “shrunken log2 fold change” value was 0.16.

Regarding RRIRGRPPRLPRPRPRPKVSPRP, the “shrunken log2 fold change” value came out at 0.787.

On to RRIRSRPPRLPRPRPRPIDYPRP, for which the “shrunken log2 fold change” value is -0.0581.

On to RRIRPRPPRLPRPRPRPYKFPRP, for which the “shrunken log2 fold change” value was -0.178.

Consider RRIRHRPPRLPRPRPRPLYTPRP, for which the “shrunken log2 fold change” value was -0.57.

Consider RRIRHRPPRLPRPRPRPGDCPRP, for which the “shrunken log2 fold change” value is -0.0887.

As to RRIRTRPPRLPRPRPRPNSRPRP, the “shrunken log2 fold change” value was -0.0848.

Turning to RRIRQRPPRLPRPRPRPGSNPRP, the “shrunken log2 fold change” value is 0.127.

On to RRIRQRPPRLPRPRPRPQKVPRP, for which the “shrunken log2 fold change” value was -0.0255.

Take RRIRRRPPRLPRPRPRPKPRPRP: the “shrunken log2 fold change” value turned out to be 0.825.

As to RRIRNRPPRLPRPRPRPTVPPRP, the “shrunken log2 fold change” value is -0.233.

As for RRIRSRPPRLPRPRPRPGSEPRP, the “shrunken log2 fold change” value was found to be 0.593.

Turning to RRIRARPPRLPRPRPRPFQRPRP, the “shrunken log2 fold change” value was -0.0439.

RRIRGRPPRLPRPRPRPSFNPRP: the “shrunken log2 fold change” value was 0.131.

Consider RRIRIRPPRLPRPRPRPTKMPRP, for which the “shrunken log2 fold change” value is -0.116.

For RRIRDRPPRLPRPRPRPWTAPRP, the “shrunken log2 fold change” value was -0.0482.
